Test results as given in publication PMC5696648.

Columns and labels:
[1] = system: LexA S119A (Escherichia coli); experiment: EMSA
[2] = system: LexA WT (Escherichia coli); experiment: EMSA

44-bp SOS consensus operator duplex gave a Kd [1] of 43 nM and a Kd [2] of 47 nM.
